According to US20230070886A1 (NOVAVAX, published 2023):

Molecular target: His-tagged human angiotensin-converting enzyme 2 precursor (hACE2) (human, UniProt Q9BYF1 18-740)
Experiment: bio-layer interferometry

Sequence of His-tagged human angiotensin-converting enzyme 2 precursor (hACE2) (Q9BYF1 18-740 limits assumed): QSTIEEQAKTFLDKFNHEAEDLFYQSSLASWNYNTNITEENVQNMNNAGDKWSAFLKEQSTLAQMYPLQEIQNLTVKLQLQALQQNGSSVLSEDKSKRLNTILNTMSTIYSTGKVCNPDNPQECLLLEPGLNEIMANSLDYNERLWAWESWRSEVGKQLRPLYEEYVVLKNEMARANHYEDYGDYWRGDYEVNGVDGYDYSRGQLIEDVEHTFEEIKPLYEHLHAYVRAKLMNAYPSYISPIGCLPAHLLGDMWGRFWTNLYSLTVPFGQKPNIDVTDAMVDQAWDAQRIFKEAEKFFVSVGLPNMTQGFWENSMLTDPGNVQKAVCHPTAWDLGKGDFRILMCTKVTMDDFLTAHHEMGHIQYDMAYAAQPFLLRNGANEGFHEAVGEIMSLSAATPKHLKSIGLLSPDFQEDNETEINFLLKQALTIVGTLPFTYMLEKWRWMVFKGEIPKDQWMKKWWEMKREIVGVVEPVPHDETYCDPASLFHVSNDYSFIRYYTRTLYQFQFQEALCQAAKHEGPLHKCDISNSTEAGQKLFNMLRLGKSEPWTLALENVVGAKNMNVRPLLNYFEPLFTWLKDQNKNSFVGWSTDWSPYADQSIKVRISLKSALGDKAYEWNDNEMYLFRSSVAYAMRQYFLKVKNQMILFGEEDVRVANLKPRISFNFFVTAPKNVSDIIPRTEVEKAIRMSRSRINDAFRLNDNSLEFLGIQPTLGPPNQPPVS

B1: MERS S protein (other)
chain: YVDVGPDSVKSACIEVDIQQTFFDKTWPRPIDVSKADGIIYPQGRTYSNITITYQGLFPYQGDHGDMYVYSAGHATGTTPQKLFVANYSQDVKQFANGFVVRIGAAANSTGTVIISPSTSATIRKIYPAFMLGSSVGNFSDGKMGRFFNHTLVLLPDGCGTLLRAFYCILEPRSGNHCPAGNSYTSFATYHTPATDCSDGNYNRNASLNSFKEYFNLRNCTFMYTYNITEDEILEWFGITQTAQGVHLFSSRYVDLYGGNMFQFATLPVYDTIKYYSIIPHSIRSIQSDRKAWAAFYVYKLQPLTFLLDFSVDGYIRRAIDCGFNDLSQLHCSYESFDVESGVYSVSSFEAKPSGSVVEQAEGVECDFSPLLSGTPPQVYNFKRLVFTNCNYNLTKLLSLFSVNDFTCSQISPAAIASNCYSSLILDYFSYPLSMKSDLSVSSAGPISQFNYKQSFSNPTCLILATVPHNLTTITKPLKYSYINKCSRFLSDDRTEVPQLVNANQYSPCVSIVPSTVWEDGDYYRKQLSPLEGGGWLVASGSTVAMTEQLQMGFGITVQYGTDTNSVCPKLEFANDTKIASQLGNCVEYSLYGVSGRGVFQNCTAVGVRQQRFVYDAYQNLVGYYSDDGNYYCLRACVSVPVSVIYDKETKTHATLFGSVACEHISSTMSQYSRSTRSMLKRRDSTYGPLQTPVGCVLGLVNSSLFVEDCKLPLGQSLCALPDTPSTLTPRSVRSVPGEMRLASIAFNHPIQVDQLNSSYFKLSIPTNFSFGVTQEYIQTTIQKVTVDCKQYVCNGFQKCEQLLREYGQFCSKINQALHGANLRQDDSVRNLFASVKSSQSSPIIPGFGGDFNLTLLEPVSISTGSRSARSAIEDLLFDKVTIADPGYMQGYDDCMQQGPASARDLICAQYVAGYKVLPPLMDVNMEAAYTSSLLGSIAGVGWTAGLSSFAAIPFAQSIFYRLNGVGITQQVLSENQKLIANKFNQALGAMQTGFTTTNEAFHKVQDAVNNNAQALSKLASELSNTFGAISASIGDIIQRLDVLEQDAQIDRLINGRLTTLNAFVAQQLVRSESAALSAQLAKDKVNECVKAQSKRSGFCGQGTHIVSFVVNAPNGLYFMHVGYYPSNHIEVVSAYGLCDAANPTNCIAPVNGYFIKTNNTRIVDEWSYTGSSFYAPEPITSLNTKYVAPQVTYQNISTNLPPPLLGNSTGIDFQDELDEFFKNVSTSIPNFGSLTQINTTLLDLTYEMLSLQQVVKALNESYIDLKELGNYTYYNKWPWYIWLGFIAGLVALALCVFFILCCTGCGTNCMGKLKCNRCCDRYEEYDLEPHKVHVH
binding result: no binding
